IC50 data for one variant are collected here from article PMC7618200 (The Biochemical journal, 2025).

First the molecules themselves.
B1: MyD88 peptide 125AEKPLQVAAVDSSVPRT141 (17-mer) [human] / SPOP MATH domain (SPOP^MATH; residues 28-166) [human] (parent complex)
chain 1: AEKPLQVAAVDSSVPRT
chain 2: KVVKFSYMWTINNFSFCREEMGEVIKSSTFSSGANDKLKWCLRVNPKGLDEESKDYLSLYLLLVSCPKSEVRAKFKFSILNAKGEETKAMESQRAYRFVQGKDWGFKKFIRRDFLLDEANGLLPDDKLTLFCEVSVVQD

As usually defined, the IC50 is the concentration that gives 50% inhibition.

The variants in the test derive from B1. The test can be described thus: FP competition assay; competitor against fluorescently labeled Puc peptide.
On to chain 1 AEKPLQVAAVAAAVPRT, for which the IC50 was roughly 2110 µM.
